Data taken from patent publication US20160031958.

Assays:
[1] = molecular target: T1, FLAG-REST (810-910)-GFP reporter peptide, unmutated
T1 chain: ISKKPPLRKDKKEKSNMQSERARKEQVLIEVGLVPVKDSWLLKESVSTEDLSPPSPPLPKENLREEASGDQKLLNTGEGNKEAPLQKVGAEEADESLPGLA

[2] = molecular target: T2, FLAG-REST (unmutated, full-length), Q13127
T2 chain: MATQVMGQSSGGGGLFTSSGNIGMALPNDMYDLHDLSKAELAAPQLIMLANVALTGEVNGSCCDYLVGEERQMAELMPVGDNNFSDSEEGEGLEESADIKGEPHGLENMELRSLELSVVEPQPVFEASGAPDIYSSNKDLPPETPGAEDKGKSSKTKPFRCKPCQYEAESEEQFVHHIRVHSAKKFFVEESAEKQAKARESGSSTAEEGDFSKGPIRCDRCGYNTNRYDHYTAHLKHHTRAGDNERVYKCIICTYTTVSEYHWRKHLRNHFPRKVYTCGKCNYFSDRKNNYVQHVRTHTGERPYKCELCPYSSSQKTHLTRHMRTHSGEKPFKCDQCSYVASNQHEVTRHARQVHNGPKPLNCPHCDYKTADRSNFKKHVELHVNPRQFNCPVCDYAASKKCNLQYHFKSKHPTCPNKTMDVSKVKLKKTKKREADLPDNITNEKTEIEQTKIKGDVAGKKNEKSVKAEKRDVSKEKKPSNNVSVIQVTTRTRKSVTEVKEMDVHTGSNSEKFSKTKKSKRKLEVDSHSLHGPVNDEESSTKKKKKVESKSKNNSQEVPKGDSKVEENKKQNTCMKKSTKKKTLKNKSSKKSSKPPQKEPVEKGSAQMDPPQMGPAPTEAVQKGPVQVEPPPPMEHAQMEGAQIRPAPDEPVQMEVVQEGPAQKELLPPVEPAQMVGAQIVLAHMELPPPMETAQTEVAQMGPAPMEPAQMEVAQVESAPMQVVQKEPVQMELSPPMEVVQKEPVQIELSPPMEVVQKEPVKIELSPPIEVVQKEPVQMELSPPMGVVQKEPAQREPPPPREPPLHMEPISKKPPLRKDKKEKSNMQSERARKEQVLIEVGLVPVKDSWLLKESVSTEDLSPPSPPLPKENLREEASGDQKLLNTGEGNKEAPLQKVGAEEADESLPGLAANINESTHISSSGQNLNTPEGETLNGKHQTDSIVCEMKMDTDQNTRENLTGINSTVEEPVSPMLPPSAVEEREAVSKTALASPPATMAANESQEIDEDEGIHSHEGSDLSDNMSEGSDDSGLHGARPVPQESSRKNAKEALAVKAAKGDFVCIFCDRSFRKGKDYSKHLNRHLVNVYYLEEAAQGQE

B1: FLAG-CTDSP1 (protein)
chain: MDSSAVITQISKEEARGPLRGKGDQKSAASQKPRSRGILHSLFCCVCRDDGEALPAHSGAPLLVEENGAIPKQTPVQYLLPEAKAQDSDKICVVIDLDETLVHSSFKPVNNADFIIPVEIDGVVHQVYVLKRPHVDEFLQRMGELFECVLFTASLAKYADPVADLLDKWGAFRARLFRESCVFHRGNYVKDLSRLGRDLRRVLILDNSPASYVFHPDNAVPVASWFDNMSDTELHDLLPFFEQLSRVDDVYSVLRQPRPGS
in-gel GFP fluorescence on native gel (mobility shift) [1]: Dephosphorylation by CTDSP1 was also observed in the REST reporter peptides | Western blot with REST phospho-specific polyclonal antibody [2]: exogenously expressed FLAG-CTDSP1 dephosphorylated these sites in full-length REST
